# Reference: patent US11787839B2, “Targeting α2δ-1-bound glutamate receptors for treating diseases and disorders” (Board of Regents, The University of Texas System, priority 2017, dated 2023)
# Columns and labels:
# MCAO mice = assay: MCAO ischemic stroke model: neurological deficit and infarct volume; format: in vivo, mouse; settings: 90 min MCAO, 24 h reperfusion; gabapentin 100 mg/kg i.p. pre- or posttreatment; peptide 200 μg/kg i.p. twice
# Method: Gabapentin was administered intraperitoneally (i.p.) either before or after initiating MCAO in separate groups of mice (pretreatment and posttreatment groups). […] Saline at the same volume as the gabapentin was administered i.p. in a vehicle group that also received MCAO.
# It was then determined whether the α2δ-1-NMDAR interaction is involved in brain injury and neurological deficits caused by MCAO. In this protocol, MCAO-subjected mice with two injections of α2δ-1Tat peptide or control peptide (both 200 μg/kg, i.p.): one at 15 min before MCAO and another immediately before reperfusion. […] Furthermore, the brain infarct volume was much less in mice treated with α2δ-1Tat peptide than in mice treated with the control peptide (FIG. 22D).
# Animal model. All procedures and protocols were approved by the Institutional Animal Care and Use Committee of The University of Texas MD Anderson Cancer Center. Adult male wild-type (WT) and conventional Cacna2d1 knockout (KO) mice (25-30 g, 8-10 weeks of age) were used in the study. MCAO was used in mice as an ischemic stroke model. The neurological deficits of mice subjected to MCAO were evaluated using a modified Longa test on a scale of 0-5. The brain coronal sections were stained using 1% 2,3,5-triphenyltetrazolium chloride (TTC), and the stained sections were captured as digital images and quantified for infarct volume.
# [1] = molecular target: T1, NMDARs of spinally projecting PVN neurons (Rattus norvegicus, UniProt P35439+Q00959+Q00960); assay: Recordings of spinally projecting PVN neurons in rat brain slices (Ang II); format: cell-based
# T1 construct: from tissue; host or cells: rat hypothalamic slices containing the PVN (Sprague-Dawley, WKY, SHR) and synaptosomes made from them
# T1 sequence (Q00959 20-1464 limits assumed, other chains not shown): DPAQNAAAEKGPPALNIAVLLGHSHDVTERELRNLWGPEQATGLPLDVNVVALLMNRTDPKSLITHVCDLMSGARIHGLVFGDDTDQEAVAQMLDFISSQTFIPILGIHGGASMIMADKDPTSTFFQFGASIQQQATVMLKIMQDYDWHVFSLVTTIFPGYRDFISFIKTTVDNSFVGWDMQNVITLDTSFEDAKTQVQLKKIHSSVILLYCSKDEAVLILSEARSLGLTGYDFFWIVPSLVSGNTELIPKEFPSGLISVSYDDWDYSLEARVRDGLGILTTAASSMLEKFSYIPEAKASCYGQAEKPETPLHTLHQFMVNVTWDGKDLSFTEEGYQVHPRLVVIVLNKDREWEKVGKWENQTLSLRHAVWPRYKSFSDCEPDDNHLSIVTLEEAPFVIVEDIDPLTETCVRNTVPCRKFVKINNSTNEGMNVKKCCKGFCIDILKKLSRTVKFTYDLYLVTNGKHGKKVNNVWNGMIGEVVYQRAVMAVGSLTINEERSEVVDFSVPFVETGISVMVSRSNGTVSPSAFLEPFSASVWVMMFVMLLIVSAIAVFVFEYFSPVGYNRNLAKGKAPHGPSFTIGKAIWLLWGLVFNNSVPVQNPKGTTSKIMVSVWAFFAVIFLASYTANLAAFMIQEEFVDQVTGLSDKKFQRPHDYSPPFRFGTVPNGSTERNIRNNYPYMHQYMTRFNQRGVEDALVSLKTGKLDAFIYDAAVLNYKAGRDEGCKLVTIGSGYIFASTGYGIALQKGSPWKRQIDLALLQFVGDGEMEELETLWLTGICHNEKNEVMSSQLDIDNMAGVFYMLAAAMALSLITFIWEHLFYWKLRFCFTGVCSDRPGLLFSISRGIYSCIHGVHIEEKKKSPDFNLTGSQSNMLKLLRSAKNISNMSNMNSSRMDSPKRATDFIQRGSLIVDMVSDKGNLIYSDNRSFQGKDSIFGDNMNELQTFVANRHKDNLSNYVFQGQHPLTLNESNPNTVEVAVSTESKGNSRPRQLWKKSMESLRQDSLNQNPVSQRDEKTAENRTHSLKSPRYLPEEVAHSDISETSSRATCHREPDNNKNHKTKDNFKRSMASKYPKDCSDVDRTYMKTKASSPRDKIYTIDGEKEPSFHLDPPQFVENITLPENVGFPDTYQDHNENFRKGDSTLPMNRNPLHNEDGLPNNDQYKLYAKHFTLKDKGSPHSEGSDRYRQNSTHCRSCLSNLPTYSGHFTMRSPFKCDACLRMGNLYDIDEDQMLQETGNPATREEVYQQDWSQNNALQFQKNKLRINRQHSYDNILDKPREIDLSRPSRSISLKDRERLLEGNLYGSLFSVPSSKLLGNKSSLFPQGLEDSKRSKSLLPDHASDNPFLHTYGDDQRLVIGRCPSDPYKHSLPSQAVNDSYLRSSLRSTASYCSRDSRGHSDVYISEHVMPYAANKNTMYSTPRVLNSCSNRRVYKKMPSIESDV
# T1 sequence (Q00960 27-1482, other chains not shown): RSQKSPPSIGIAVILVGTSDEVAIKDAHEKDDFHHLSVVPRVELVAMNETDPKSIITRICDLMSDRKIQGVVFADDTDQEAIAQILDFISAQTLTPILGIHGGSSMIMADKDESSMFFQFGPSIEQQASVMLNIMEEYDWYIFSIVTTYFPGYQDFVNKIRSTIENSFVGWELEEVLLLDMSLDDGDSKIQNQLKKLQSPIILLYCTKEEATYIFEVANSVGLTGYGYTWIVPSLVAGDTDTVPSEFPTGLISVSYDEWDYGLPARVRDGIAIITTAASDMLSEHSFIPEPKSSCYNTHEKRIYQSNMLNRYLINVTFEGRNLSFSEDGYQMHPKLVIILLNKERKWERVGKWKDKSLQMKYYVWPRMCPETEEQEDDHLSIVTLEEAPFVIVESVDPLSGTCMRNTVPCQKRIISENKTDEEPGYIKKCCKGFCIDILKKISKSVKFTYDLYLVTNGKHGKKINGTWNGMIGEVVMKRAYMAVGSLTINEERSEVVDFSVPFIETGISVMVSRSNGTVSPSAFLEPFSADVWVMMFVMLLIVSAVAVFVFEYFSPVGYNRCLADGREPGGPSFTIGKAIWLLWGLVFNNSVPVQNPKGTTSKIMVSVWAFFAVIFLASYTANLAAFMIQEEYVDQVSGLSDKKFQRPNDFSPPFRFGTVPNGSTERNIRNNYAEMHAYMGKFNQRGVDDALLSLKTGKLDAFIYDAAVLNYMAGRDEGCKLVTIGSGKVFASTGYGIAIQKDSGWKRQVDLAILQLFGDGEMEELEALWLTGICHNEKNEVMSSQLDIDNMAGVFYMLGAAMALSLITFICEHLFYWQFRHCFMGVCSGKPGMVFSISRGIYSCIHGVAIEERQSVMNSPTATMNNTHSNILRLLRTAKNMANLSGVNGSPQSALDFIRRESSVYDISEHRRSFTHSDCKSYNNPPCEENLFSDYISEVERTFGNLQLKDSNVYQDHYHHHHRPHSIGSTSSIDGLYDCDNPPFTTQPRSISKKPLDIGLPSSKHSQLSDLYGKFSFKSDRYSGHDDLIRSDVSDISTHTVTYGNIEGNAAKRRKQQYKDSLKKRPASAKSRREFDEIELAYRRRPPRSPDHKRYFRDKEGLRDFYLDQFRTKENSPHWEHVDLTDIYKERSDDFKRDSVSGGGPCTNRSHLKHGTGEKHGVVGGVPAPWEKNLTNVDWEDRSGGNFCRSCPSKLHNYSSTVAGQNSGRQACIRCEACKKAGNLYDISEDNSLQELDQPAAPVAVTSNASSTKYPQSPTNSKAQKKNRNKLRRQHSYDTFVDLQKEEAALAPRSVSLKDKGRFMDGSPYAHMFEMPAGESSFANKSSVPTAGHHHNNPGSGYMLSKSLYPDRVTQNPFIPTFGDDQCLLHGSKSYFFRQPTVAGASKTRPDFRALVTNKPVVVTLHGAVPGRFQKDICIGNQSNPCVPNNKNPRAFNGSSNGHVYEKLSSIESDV
# Source text: Retrograde labeling of spinally projecting PVN neurons: Rats or mice were anesthetized with 2-3% isoflurane, and their spinal cords at the T1-T4 level were exposed through dorsal laminectomy. A fluorescent microsphere suspension (FluoSpheres, 0.04 μm; Molecular Probes, Invitrogen, Eugene, Oreg.) was pressure ejected (Nanoject II Microinjectors, Drummond Scientific Company, Broomall, Pa.) bilaterally into the IML region of the spinal cord in six separate 50-nl injections using a glass micropipette (tip diameter, 20-30 μm). […] The wound was closed with sutures after injection. Animals were returned to their cages for 4-7 days, which was sufficient time to permit the tracer to be retrogradely transported to the PVN. The animals were inspected daily for motor activity, signs of infection, and food and water intake.
# Brain slice preparation: Four to seven days after fluorescent tracer injection, the animals were anesthetized with isoflurane and rapidly decapitated. […] Coronal slices (thickness, 300 μm) containing the PVN were cut from the tissue block in the ice-cold aCSF. […] The brain slices were placed in a glass-bottom chamber and continuously perfused with aCSF at 3.0 ml/min at 34° C. maintained by an inline solution heater and temperature controller.
# The labeled PVN neurons were briefly identified with the aid of epifluorescence illumination, and whole-cell recordings from labeled PVN neurons were performed under differential interference contrast optics on an upright microscope (BX50 WI; Olympus Optical, Tokyo, Japan). Recordings of postsynaptic currents began 5 min after the whole-cell access was established and the current reached a steady state.
# Signals were processed with an […] amplifier (Axon Instruments, Foster City, Calif.). A liquid junction potential of 15 mV (for the potassium gluconate pipette solution) was corrected during off-line analysis.
# Postsynaptic NMDAR currents were elicited by puff application of 100 μmol/L NMDA to the recorded neuron using a positive pressure system (4 p.s.i., 50 ms; Toohey Company, Fairfield, N.J.). The tip of the puff pipette was placed 150 μm from the recorded neuron. […] The NMDAR current data presented in the manuscript were the average of 3 consecutive currents elicited by repeated puff NMDA. The neuron was discarded if the current was not stable.
# Ang II, losartan, and NMDA were obtained from Sigma (St. Louis, Mo.). The α2δ-1Tat peptide and scrambled control peptide were synthesized by Bio Basic Inc. (Markham, Ontario, Canada) and validated by liquid chromatography and mass spectrometry. […] All drugs were prepared immediately before the experiments and applied to the slice chamber. The brain slices were first pretreated with Ang II, losartan, α2δ-1Tat peptide, or control peptide in the slice incubation chamber before recording. For electrophysiological recording, the treatment agents were immediately removed and the brain slice transferred to a separate recording chamber.
# α2δ-1-Cav2.2 association = molecular target: T2, α2δ-1-Cav2.2 association (Mus musculus, UniProt O08532+O55017); assay: Co-IP of α2δ-1 and Cav2.2 in mouse brain slices subjected to OGD; format: cell-based; settings: 1 μM for 30 min
# T2 construct: from tissue; host or cells: mouse brain slices subjected to OGD, membrane extracts
# Method: FIGS. 22A-22D: α2δ-1-bound NMDARs contribute to brain injury and neurological deficit caused by MCAO in the brain. (A) Upper: Original gel images of coimmunoprecipitation (co-IP) analysis show the interaction between α2δ-1 and GluN1 in two samples from mouse brain tissues; Lower: Effect of α2δ-1Tat peptide (1 μM for 60 min) on the α2δ-1-GluN1 protein complex in mouse brain tissues (n=6 mice per group). (B) Representative gel images and quantification of co-IP analysis show the effect of OGD on the α2δ-1-GluN1 or α2δ-1-Cav2.2 association in mouse brain tissues (n=6 mice per group). IgG and input were used as negative and positive controls, respectively. (C) Original gel images and quantification of co-IP analysis show the effect of α2δ-1Tat peptide (P) and control peptide (C; both 1 μM for 30 min) on the α2δ-1-GluN1 or α2δ-1-Cav2.2 association in mouse brain slices subjected to OGD (O, n=6 mice per group). (D) Neurological severity scores (left) and representative TTC staining and quantification (right) of brain infarct volume in MCAO mice treated with α2δ-1Tat peptide or control peptide (both 200 μg/kg, i.p.) at 15 min before MCAO and immediately before reperfusion (n=8 mice per group). Data are shown as means±SEM. *p<0.05, **p<0.01 compared with the control peptide- or vehicle-treated group (paired Student's t-test for panels B-D and F; Mann-Whitney test for panel E). […]
Compound,brain infarct volume (MCAO mice),neurological deficit score (MCAO mice),amplitude of puff NMDA currents of labeled PVN neurons ([1]; Ang II 2 μmol/L for 30-60 min),baseline frequency of mEPSCs of labeled PVN neurons ([1]; Ang II 2 μmol/L for 30-60 min),"effect of Ang II on mEPSC frequency in pretreated slices ([1]; losartan 2 μmol/L, pregabalin 20 μmol/L, peptides 1 μmol/L)","effect of Ang II on puff NMDA currents in pretreated slices ([1]; losartan 2 μmol/L, pregabalin 20 μmol/L, peptides 1 μmol/L, 30 min)",α2δ-1-Cav2.2 association in brain tissues subjected to OGD (α2δ-1-Cav2.2 association)
NCC1(CC(=O)O)CCCCC1 [gabapentin],much smaller,significantly improved,–,–,–,–,–
"Ang II: angiotensin II, obtained from Sigma (DRVYIHPF; Angiotensin-2; UniProt P01019 25-32, looked up)",–,–,markedly increased,significantly increased,–,–,–
"YGRKKRRQRRRVSGLNPSLWSIFGLQFILLWLVSGSRHYLW (a2d1 peptide) [α2δ-1Tat peptide, 30-amino-acid peptide mimicking the C-terminal domain of α2δ-1 fused to the cell-penetrating peptide Tat]",much less,significantly reduced,–,–,failed to increase,had no effect,had no effect
